Results taken from patent US20180099057.

Tests used:
[1] = test system: T1, oligopeptide sequence GNwPwDwGwDwPwNwG (SEQ ID NO:9) tethering TCPP to the nanoparticle
T1 sequence: GNWPWDWGWDWPWNWG

[2] = test system: T2, oligopeptide sequence GNWPWDWGWDWPWNWG (SEQ ID NO:8) tethering TCPP to the nanoparticle
T2 sequence: GNWPWDWGWDWPWNWG

[3] = test system: T3, oligopeptide sequence GRARQRLRARQG (SEQ ID NO:7) tethering TCPP to the nanoparticle
T3 sequence: GRARQRLRARQG

[4] = test system: T4, oligopeptide sequence GRRRRRRRG (SEQ ID NO:5) tethering TCPP to the nanoparticle
T4 sequence: GRRRRRRRG

[5] = test system: T5, Cyanine 5.5 linked GR7G peptide (SEQ ID NO:5) on nanoplatform 1 / nanoplatform 2
T5 sequence: GRRRRRRRG

indoleamine 2,3-dioxygenase 1
calibration of nanoplatform fluorescence after 60 min. of incubation in HEPES buffer [1]: the concentration of IDO1 can be determined over the range from 10^-7 to 10^-14 M
limit of detection, nanoplatform fluorescence after 60 min. of incubation in HEPES buffer [2]: the LOD for IDO1 is 10^-15 M

tryptophan 2,3-dioxygenase
calibration of nanoplatform fluorescence after 60 min. of incubation in HEPES buffer [1]: TDO does not react with the substrate GNwPwDwGwDwPwNwG (SEQ ID NO:9), because it is specific for L-tryptophan
calibration of nanoplatform fluorescence after 60 min. of incubation in HEPES buffer [2]: the concentration of TDO can be determined over the whole range from 10^-7 to 10^-16 M

B1: arginase II (enzyme, UniProt P78540 23-354, looked up, species assumed)
Arginase-2, mitochondrial: VHSVAVIGAPFSQGQKRKGVEHGPAAIREAGLMKRLSSLGCHLKDFGDLSFTPVPKDDLYNNLIVNPRSVGLANQELAEVVSRAVSDGYSCVTLGGDHSLAIGTISGHARHCPDLCVVWVDAHADINTPLTTSSGNLHGQPVSFLLRELQDKVPQLPGFSWIKPCISSASIVYIGLRDVDPPEHFILKNYDIQYFSMRDIDRLGIQKVMERTFDLLIGKRQRPIHLSFDIDAFDPTLAPATGTPVVGGLTYREGMYIAEEIHNTGLLSALDLVEVNPQLATSEEEAKTTANLAVDVIASSFGQTREGGHIVYDQLPTPSSPDESENQARVRI
limit of detection, TCPP fluorescence of the nanoplatform after 60 min. of incubation in HEPES buffer [3]: The limit of detection is estimated to 2×10^-16M arginase II
limit of detection, TCPP fluorescence of the nanoplatform after 60 min. of incubation in PBS [4]: The limit of detection is 10^-15 M arginase II
cyanine 7.0 fluorescence (FRET) of nanoplatform 1 after 1 h of incubation at 37° C. [5]: After incubation with arginase II, an increase in cyanine 7.0 fluorescence was observed
limit of detection from the calibration curve of FIG. 13 (nanoplatform 2, printed as nanoplatform 1) [5]: the LOD (limit of detection) of nanoplatform 1 is 10^-10 M
limit of detection of nanoplatform 1, quotient of integrated cyanine 5.5 and cyanine 7.0 fluorescence bands [5]: the LOD (limit of detection) of nanoplatform 1 is down to the picomolar level
limit of detection of nanoplatform 2, fluorescence increase over the whole range [5]: its LOD is only at 10^-7 M of arginase II concentration
